Results as given in the supplement of paper PMC10567573.

B1: EPB41L3 (parent)
chain: KKFLTLGSKFRYSGRTQAQTRRAS

Variants of: B1
Assay: protein stability index of a GFP-peptide fusion (GPS, HEK-293T) (PSI 1-6); higher = more stable
Details: c terminus: a fixed tail appended
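Further: lentivirally expressed fusions sorted by FACS into six bins by GFP to DsRed ratio, PSI derived from sequencing read proportions per bin multiplied by bin number.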

Protein stability index of substitutions, site by site:
S8: Y 3.4, V 2.81, R 3.46, T 2.88
T16: M 2.99, K 3.02, R 3.13, H 2.93, L 2.52, S 3.36, V 2.74, D 2.87, E 3.38, Y 3.72, G 2.54, Q 2.94, C 2.2, F 2.94, N 3.28, W 1.84, I 2.83, A 2.53
R15: V 2.93, N 2.77, I 2.19, F 2.19, C 2.66, G 2.33, P 2.58, A 3.32, T 3.4, M 2.49, L 2.64, Y 2.16, E 2.89, H 3.12, D 3.81, W 2.05, K 2.85, S 2.53, Q 3.3
G14: S 3.34, Q 3.56, K 3.1, T 3.81, D 2.81, I 2.44, Y 3.03, L 4.04, A 3.42, R 3.38, E 3.75, C 2.06, W 4.87, H 3.57, V 2.96, P 3.46, N 3.67, M 3.71, F 2.56
K9: H 2.11, F 2.13, N 1.99, I 2.6, A 1.96, Y 2.85, T 2.13, V 2.23, Q 1.79, E 1.34, M 2.27, L 2.29, C 1.66, D 2.01
A23: E 3.21, D 2.53, I 3.4, Q 3.27, R 4.08, Y 2.13, G 3.69, W 3.26, C 2.24, N 2.85, M 2.49, H 3, K 3.81, P 2.5, T 2.92, L 3.66, S 2.96
A18: S 3.19, K 2.61, Y 3.11, P 2.92, H 2.49, L 2.44, Q 2.73, E 3.23, T 3.1, V 2.84, N 3.55, I 2.91, M 2.77, F 2.44
S13: K 3.96, G 2.88, T 2.74, Q 3.04, Y 3.1, I 2.34, M 2.87, H 2.68, N 3.95, C 1.41, A 2.63, F 2.67, E 4.01, D 2.85, W 2.91, V 2.01, P 2.55
T20: H 2.91, R 3.47, F 2.28, C 3.77, M 2.32, A 2.64, I 3.28, K 3.2, S 3.56, L 2.06, V 3.28, P 2.81, N 2.62, Y 2.69, G 1.9, D 2.33
Q19: S 2.45, H 2.52, A 2.68, Y 2.22, E 2.69, W 2.58, P 3.19, F 2.1, N 3.41, R 3.03, C 2.77, I 2.37, D 1.2, T 2.61
Q17: S 2.01, G 2.63, A 2.32, K 2.11, M 2.77, F 1.76, V 2.24, H 3.25, D 2.95, L 2.77, C 2.94, T 2.38, I 2.57, R 2.95, E 2.76
